The target of assay [1] is T1, apical domain of human CD71 (human, UniProt P02786 189-383, limits assumed).
T1 construct: domain: apical domain; Screen 4 panned on human apical domains, the ELISA text says only 'apical domain'
The experiment in a line: primary ELISA, RLU over HSA.

The target of assay [2] is T2, human CD71 extracellular domain (human, UniProt P02786 89-760, biotinylated).
T2 construct: also called hCD71; CD71-ECD
The experiment in a line: primary ELISA, RLU over HSA. Background: ELISA stands for enzyme-linked immunosorbent assay.

Assay [3] concerns the target T1, apical domain of human CD71. The experiment in a line: primary ELISA. Further: test concentration or dose not given here.
The target of assay [4] is T2, human CD71 extracellular domain. The experiment in a line: primary ELISA. Further: test concentration or dose not given here.

T2 sequence (P02786 89-760): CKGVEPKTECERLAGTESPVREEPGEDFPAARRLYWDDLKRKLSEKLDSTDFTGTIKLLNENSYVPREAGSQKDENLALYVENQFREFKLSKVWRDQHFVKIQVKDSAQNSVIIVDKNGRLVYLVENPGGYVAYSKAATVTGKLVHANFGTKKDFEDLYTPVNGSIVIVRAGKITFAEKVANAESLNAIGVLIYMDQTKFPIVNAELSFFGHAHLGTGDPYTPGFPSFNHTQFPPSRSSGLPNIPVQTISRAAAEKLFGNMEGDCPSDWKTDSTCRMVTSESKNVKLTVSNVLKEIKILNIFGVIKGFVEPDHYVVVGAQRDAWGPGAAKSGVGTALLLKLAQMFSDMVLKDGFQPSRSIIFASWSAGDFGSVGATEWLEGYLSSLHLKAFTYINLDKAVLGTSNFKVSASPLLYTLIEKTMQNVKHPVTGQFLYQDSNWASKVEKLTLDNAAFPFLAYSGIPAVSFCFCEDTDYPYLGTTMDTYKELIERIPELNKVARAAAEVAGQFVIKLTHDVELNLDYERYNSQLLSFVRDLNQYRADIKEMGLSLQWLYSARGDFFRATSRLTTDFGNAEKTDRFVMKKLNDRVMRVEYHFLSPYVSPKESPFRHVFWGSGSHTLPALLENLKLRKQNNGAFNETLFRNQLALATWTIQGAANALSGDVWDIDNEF
T1 sequence (P02786 189-383 limits assumed): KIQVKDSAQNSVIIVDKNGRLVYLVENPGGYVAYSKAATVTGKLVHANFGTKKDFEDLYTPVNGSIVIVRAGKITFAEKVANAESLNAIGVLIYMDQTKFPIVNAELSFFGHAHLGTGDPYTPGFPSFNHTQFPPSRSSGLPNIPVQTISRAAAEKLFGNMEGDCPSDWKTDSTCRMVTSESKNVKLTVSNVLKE

B1: CD71-binding FN3 domain of SEQ ID NO: 468 (designed binder)
chain: MLPAPKNLVVSRVTEDSARLSWTAPDAAFDSFLIQYDEEGVWGEAIVLTVPGSERSYDLTGLKPGTEYSVGIGGVKGGWSSVPLSAIFTT
As to B1, the “Apical domain:HSA” value in assay [1] stood at 24. Moreover, the “hCD71:HSA” value in assay [2] is 71. The RLU in assay [3] stood at 3.58e+06 RLU; in assay [4], 1.05e+06 RLU.

B2: CD71-binding FN3 domain of SEQ ID NO: 488 (designed binder)
chain: MLPAPKNLVVSRVTEDSARLSWTAPDAAFDSFIIQYGEYLRWGEAIVLTVPGSERSYDLTGLKPGTEYQVEIYGVKGGPLSKPLSAIFTT
On to B2, for which, in assay [1], the “Apical domain:HSA” value was 103. Also, the “hCD71:HSA” value in assay [2] turned out to be 53. The RLU in assay [3] is 6.14e+06 RLU; in assay [4], 3.18e+06 RLU.

B3: CD71-binding FN3 domain of SEQ ID NO: 455 (designed binder)
chain: MLPAPKNLVVSRVTEDSARLSWTAPDAAFDSFTISYPEEAKHGEAIVLTVPGSERSYDLTGLKPGTEYGVPINGVKGGVSSLPLSAIFTT
Take B3: the “Apical domain:HSA” value in assay [1] was 171. Further, the “hCD71:HSA” value in assay [2] came to 55. Further, the RLU in assay [3] was found to be 4.83e+06 RLU; in assay [4], 1.56e+06 RLU.

B4: CD71-binding FN3 domain of SEQ ID NO: 477 (designed binder)
chain: MLPAPKNLVVSRVTEDSARLSWTAPDAAFDSFEIAYFETCRTGEAIVLTVPGSERSYDLTGLKPGTEYGVSIYGVKGGAHSGPLSAIFTT
With B4, the “Apical domain:HSA” value in assay [1] turned out to be 370. In addition, in assay [2], the “hCD71:HSA” value was 289. For the same molecule, the RLU in assay [3] turned out to be 2.4e+06 RLU; in assay [4] it was 1.88e+06 RLU.

B5: CD71-binding FN3 domain of SEQ ID NO: 463 (designed binder)
chain: MLPAPKNLVVSRVTEDSARLSWTAPDAAFDSFLILYIEQDHRGEAIVLTVPGSERSYDLTGLKPGTEYWVHITGVKGGYYSAPLSAIFTT
Regarding B5, in assay [1], the “Apical domain:HSA” value was found to be 89. Moreover, in assay [2], the “hCD71:HSA” value was 91. Further, the RLU in assay [3] came out at 5.51e+06 RLU; in assay [4] it was 5.62e+06 RLU.

B6: CD71-binding FN3 domain of SEQ ID NO: 489 (designed binder)
chain: MLAPKNLVVSRVTEDSARLSWTAPDAAFDSFFIGYLEPQPPGEAISLLVPGSERSYDLTGLKPGTEYNVTIQGVKGGFPSSPLLAGFTT
Take B6: the “Apical domain:HSA” value in assay [1] came out at 340. For the same molecule, the “hCD71:HSA” value in assay [2] was 235. In addition, the RLU in assay [3] came out at 4.06e+06 RLU; in assay [4], 2.81e+06 RLU.

B7: CD71-binding FN3 domain of SEQ ID NO: 543 (designed binder)
chain: MLPAPKNLVVSRVTEDSARLSWTAPDAAFDSFFIGYLEPQPPGEAISLYVPGSERSYDLTGLKPGTEYNVTIQGVKGGFPSIPLVAVFTT
As to B7, the “Apical domain:HSA” value in assay [1] is 182. Also, the “hCD71:HSA” value in assay [2] amounted to 207. In addition, the RLU in assay [3] worked out at 4.65e+06 RLU; in assay [4], 5.29e+06 RLU.

B8: CD71-binding FN3 domain of SEQ ID NO: 544 (designed binder)
chain: MLPAPKNLVVSRVTEDSARLSWTAPDAAFDSFFIGYLEPQPPGEAIALLVPGSERSYDLTGLKPGTEYNVTIQGVKGGFPSHPLSASFTT
Take B8: in assay [1], the “Apical domain:HSA” value is 243. Further, the “hCD71:HSA” value in assay [2] was 241. Moreover, the RLU in assay [3] came to 4.07e+06 RLU; in assay [4], 4.04e+06 RLU.

B9: CD71-binding FN3 domain of SEQ ID NO: 545 (designed binder)
chain: MLPAPKNLVVSRVTEDSARLSWTAPDAAFDSFFIGYLEPQPPGEAISLVVPGSERSYDLTGLKPGTEYNVTIQGVKGGFPSNPLIATFTT
B9: the “Apical domain:HSA” value in assay [1] amounted to 327. In addition, in assay [2], the “hCD71:HSA” value stood at 327. The RLU in assay [3] and in assay [4] was 4.22e+06 RLU throughout.

B10: CD71-binding FN3 domain of SEQ ID NO: 509 (designed binder)
chain: MLPAPKNLVVSRVTEDSARLSWTAPDAAFDSFEIGYWENAYKGEAIVLTVPGSERSYDLTGLKPGTEYEVFIGGVKGGVWSVPLSAIFTT
In the case of B10, in assay [1], the “Apical domain:HSA” value is 353. Moreover, the “hCD71:HSA” value in assay [2] is 134. In addition, the RLU worked out at 4.6e+06 RLU in assay [3] and 1.74e+06 RLU in assay [4].

B11: CD71-binding FN3 domain of SEQ ID NO: 503 (designed binder)
chain: MLPAPKNLVVSRVTEDSARLSWTAPDAAFDSFEISYFETSWHGEAIVLTVLGSERSYDLTGLKPGTEYRVYIGGVKGGSWSQPLSAIFTT
For the molecule B11, in assay [1], the “Apical domain:HSA” value is 145. Moreover, the “hCD71:HSA” value in assay [2] was determined as 150. The RLU stood at 2.26e+06 RLU in assay [3] and 2.35e+06 RLU in assay [4].

B12: CD71-binding FN3 domain of SEQ ID NO: 506 (designed binder)
chain: MLPAPKNLVVSRVTEDSARLSWTAPDAAFDSFEIGYWENAYKGEAIVLTVPGSERSYDLTGLKPGTEYVVFIGGVKGGVWSVPLSAISTT
Regarding B12, the “Apical domain:HSA” value in assay [1] stood at 112. The “hCD71:HSA” value in assay [2] stood at 39. Moreover, the results for the RLU in assay [3] and in assay [4] were 4.74e+06 RLU and 1.64e+06 RLU, respectively.

B13: CD71-binding FN3 domain of SEQ ID NO: 495 (designed binder)
chain: MLPAPKNLVVSRVTEDSARLSWTAPDAAFDSFFINYREDKWIGEAIVLTVPGSERSYDLTGLKPGTEYSVPIDGVKGGAASPPLSAIFTT
On to B13, for which the “Apical domain:HSA” value in assay [1] was 504. In addition, the “hCD71:HSA” value in assay [2] came out at 142. Further, the results for the RLU in assay [3] and in assay [4] were 4.03e+06 RLU and 1.14e+06 RLU, respectively.

B14: CD71-binding FN3 domain of SEQ ID NO: 466 (designed binder)
chain: MLPAPKNLVVSRVTEDSARLSWTAPDAAFDSFYIAYAEPRPDGEAIWLLVPGSERSYDLTGLKPGTEYSVLIHGVKGGLLSSPLSADFTT
For B14, the “Apical domain:HSA” value in assay [1] amounted to 279. In addition, the “hCD71:HSA” value in assay [2] came to 70. Moreover, the RLU in assay [3] stood at 4.3e+06 RLU; in assay [4] it was 1.08e+06 RLU.

B15: CD71-binding FN3 domain of SEQ ID NO: 540 (designed binder)
chain: MLPAPKNLVVSRVTEDSARLSWTAPDAAFDSFYIAYAEPRPDGEAIILVVPGSERSYDLTGLKPGTEYSVLIHGVKGGLLSSPLDAGFTT
For B15, the “Apical domain:HSA” value in assay [1] worked out at 306. Moreover, the “hCD71:HSA” value in assay [2] was determined as 198. Besides, the RLU in assay [3] was determined as 5.85e+06 RLU; in assay [4] it was 3.79e+06 RLU.

B16: CD71-binding FN3 domain of SEQ ID NO: 471 (designed binder)
chain: MLPAPKNLVVSRVTEDSARLSWTAPDAAFDSFTIWYYESPTGGEAIVLTVPGSERSYDLTGLKPGTEYMVFIQGVKGGCFSTPLYAIFTT
B16: in assay [1], the “Apical domain:HSA” value came out at 98. Besides, the “hCD71:HSA” value in assay [2] worked out at 42. In addition, the results for the RLU in assay [3] and in assay [4] were 3.88e+06 RLU and 1.65e+06 RLU, respectively.

B17: CD71-binding FN3 domain of SEQ ID NO: 484 (designed binder)
chain: MLPAPKNLVVSRVTEDSARLSWTAPDAAFDSFEIAYQELSLWGEAIVLTVPGSERSYDLTGLKPGTEYYVHIGGVKGGIWSSPLSAISTT
Consider B17, for which the “Apical domain:HSA” value in assay [1] turned out to be 113. For the same molecule, the “hCD71:HSA” value in assay [2] was 35. Also, the RLU in assay [3] turned out to be 4.69e+06 RLU; in assay [4] it was 1.47e+06 RLU.

B18: CD71-binding FN3 domain of SEQ ID NO: 480 (designed binder)
chain: MLPAPKNLVVSRVTEDSARLSWTAPDAAFDSFEIDYAEDIREGEAIALVVPGSERSYDLTGLKPGTEYWVSIGGVKGGTWSRPLFAPFTT
On to B18, for which the “Apical domain:HSA” value in assay [1] turned out to be 181. In assay [2], the “hCD71:HSA” value amounted to 70. In addition, the values for the RLU in assay [3] and in assay [4] were 4.27e+06 RLU and 1.66e+06 RLU, respectively.

B19: CD71-binding FN3 domain of SEQ ID NO: 458 (designed binder)
chain: MLPAPKNLVVSRVTEDSARLSWTAPDAAFDSFLDLLPSNWDIAGEAIVLTVPGSERSYDLTGLKPGTEYHVNILGVKGGKESLPLVANFTT
With B19, the “Apical domain:HSA” value in assay [1] turned out to be 69. For the same molecule, in assay [2], the “hCD71:HSA” value came to 51. In addition, the results for the RLU in assay [3] and in assay [4] were 4.64e+06 RLU and 3.44e+06 RLU, respectively.

The values above are taken from patent US20260151494A1 (ARO BIOTHERAPEUTICS, published 2026).
